Biological target: adenosine A2A receptor (human (endogenous in postmortem ventral …, UniProt P29274 1-412))
Assay: proximity ligation

Sequence of adenosine A2A receptor (human (P29274 whole entry): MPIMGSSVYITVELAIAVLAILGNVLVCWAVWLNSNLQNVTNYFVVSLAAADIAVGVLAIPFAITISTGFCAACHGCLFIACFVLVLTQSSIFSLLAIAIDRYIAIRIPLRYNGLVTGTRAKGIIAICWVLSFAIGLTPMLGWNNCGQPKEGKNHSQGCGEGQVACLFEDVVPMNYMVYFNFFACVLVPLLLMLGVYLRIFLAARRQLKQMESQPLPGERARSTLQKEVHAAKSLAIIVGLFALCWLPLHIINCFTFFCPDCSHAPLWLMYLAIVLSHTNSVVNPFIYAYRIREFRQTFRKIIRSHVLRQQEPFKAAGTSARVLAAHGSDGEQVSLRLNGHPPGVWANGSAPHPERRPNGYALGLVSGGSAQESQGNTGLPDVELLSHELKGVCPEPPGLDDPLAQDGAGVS

B1: dopamine receptor type 2 (receptor, UniProt P14416 1-443, looked up)
chain: MDPLNLSWYDDDLERQNWSRPFNGSDGKADRPHYNYYATLLTLLIAVIVFGNVLVCMAVSREKALQTTTNYLIVSLAVADLLVATLVMPWVVYLEVVGEWKFSRIHCDIFVTLDVMMCTASILNLCAISIDRYTAVAMPMLYNTRYSSKRRVTVMISIVWVLSFTISCPLLFGLNNADQNECIIANPAFVVYSSIVSFYVPFIVTLLVYIKIYIVLRRRRKRVNTKRSSRAFRAHLRAPLKGNCTHPEDMKLCTVIMKSNGSFPVNRRRVEAARRAQELEMEMLSSTSPPERTRYSPIPPSHHQLTLPDPSHHGLHSTPDSPAKPEKNGHAKDHPKIAKIFEIQTMPNGKTRTSLKTMSRRKLSQQKEKKATQMLAIVLGVFIICWLPFFITHILNIHCDCNIPPVLYSAFTWLGYVNSAVNPIIYTTFNIEFRKAFLKILHC
- fraction of D2R-A2AR complex relative to total A2AR (PLA puncta): 12.3 ± 1.8%
- fraction of D2R-A2AR complex relative to total D2R (PLA puncta): 13.4 ± 5.3%

Reference: article PMC7092707 (Biotechniques, 2019)
